Patent US20090111104A1, “Method for Monitoring Hydrolytic Activity” (Fluorotechnics Pty Limited, priority 2005, published 2009)

Molecular target: T1, BSA (Bos taurus, UniProt P02769)
T1 construct: purchased Sigma-Aldrich A3059
Assay: Real-time monitoring of trypsin digestion of BSA using epicocconone (FluoStar assay)
Format: biochemical, bovine
Settings: epicocconone reporter dye, bicine pH 8.4, 37° C., trypsin 1:40, reduced and alkylated BSA
Protocol: A.3.1 Preparation of BSA for digestion • 1 Trypsin digestion was carried out in bicine buffer (ph 8.4). • 2 BSA was prepared in 10 mg/mL in 50 mM bicine buffer. • 3 One hundred microliter of the BSA sample was used for trypsin digestion.
A.3.2 Reduction and Alkylation • 1 The 100 μL of BSA sample was reduced by adding 5 μL of DTT stock for 10 min at 80° C. • 2 The sample was alkylated by adding 4 μL of the iodoacetamide stock at room temperature for 45 min-1 hr. • 3 The remaining iodoacetamide of the sample was neutralized by adding 20 μL of the DTT at room temp for 45 min-1 hr.
A.3.3 Real-Time Monitoring of Trypsin Digestion Using Epicocconone (FluoStar Assay) • 1 The reduced and denatured BSA sample from 3.2 above was diluted 10-fold in 50 mM bicine buffer (25 μL+225 μL bicine buffer). BSA molar concentration was calculated to be approx. 4 μM. • 2 One hundred microliter of the sample (step 1) was prepared in duplicates and added to a microtiter plate. […] At this point in time, it required approximately 10 min to get appropriate FluoStar setting conditions. • 4 Trypsin (Sigma-Aldrich T6567), reconstituted in 1 mM HCl, was added at a ratio of 1:40. • 5 Fluorescence development was monitored in real time every 2 minutes up to 6 hours using FluoStar (Ex/Em=540/630±12). […]

T1 sequence (P02769 25-607): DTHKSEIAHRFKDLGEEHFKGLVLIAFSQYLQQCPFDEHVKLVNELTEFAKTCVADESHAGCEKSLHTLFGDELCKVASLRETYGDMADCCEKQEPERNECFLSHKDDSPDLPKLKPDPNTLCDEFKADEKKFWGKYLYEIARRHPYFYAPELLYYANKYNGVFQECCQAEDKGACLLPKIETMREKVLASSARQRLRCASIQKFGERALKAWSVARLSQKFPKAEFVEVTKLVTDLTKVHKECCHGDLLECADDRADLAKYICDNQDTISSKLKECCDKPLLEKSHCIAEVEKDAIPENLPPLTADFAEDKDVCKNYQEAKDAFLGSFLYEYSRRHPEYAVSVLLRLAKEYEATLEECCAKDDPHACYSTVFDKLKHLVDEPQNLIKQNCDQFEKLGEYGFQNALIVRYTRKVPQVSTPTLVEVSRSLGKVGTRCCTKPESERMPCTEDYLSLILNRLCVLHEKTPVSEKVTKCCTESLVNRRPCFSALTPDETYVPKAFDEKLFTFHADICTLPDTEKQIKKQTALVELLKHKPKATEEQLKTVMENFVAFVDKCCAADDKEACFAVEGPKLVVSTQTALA

B1: trypsin: Proteomics grade trypsin protease, Sigma-Aldrich T6567 (protein, UniProt P00761 9-231, looked up)
Trypsin: IVGGYTCAANSIPYQVSLNSGSHFCGGSLINSQWVVSAAHCYKSRIQVRLGEHNIDVLEGNEQFINAAKIITHPNFNGNTLDNDIMLIKLSSPATLNSRVATVSLPRSCAAAGTECLISGWGNTKSSGSSYPSLLQCLKAPVLSDSSCKSSYPGQITGNMICVGFLEGGKDSCQGDSGGPVVCNGQLQGIVSWGYGCAQKNKPGVYTKVCNYVNWIQQTIAAN
With B1 the “apparent first order rate constant” value was 0.109 min⁻¹.
